Laboratory results from paper PMC3597819 (The Journal of Biological Chemistry, 2013).

Molecular target: the molecule itself
Experiment: crystal structure

B1: KLHL11 BTB-BACK domains (residues 67-340) (domain or fragment, human, UniProt Q9NVR0 67-340, looked up)
chain: EAEDFECSSHCSELSWRQNEQRRQGLFCDITLCFGGAGGREFRAHRSVLAAATEYFTPLLSGQFSESRSGRVEMRKWSSEPGPEPDTVEAVIEYMYTGRIRVSTGSVHEVLELADRFLLIRLKEFCGEFLKKKLHLSNCVAIHSLAHMYTLSQLALKAADMIRRNFHKVIQDEEFYTLPFHLIRDWLSDLEITVDSEEVLFETVLKWVQRNAEERERYFEELFKLLRLSQMKPTYLTRHVKPERLVANNEVCVKLVADAVERHALRAENIQSGT
stoichiometry N: 2
